In patent publication US20250304679A1 (LTZ THERAPEUTICS, published 2025):

T1: CD79b on malignant B cell lines (BJAB, Daudi, SUDHL-4, Nalm-6) (UniProt P40259 29-229, limits assumed)
T1 construct: whole, on cells; also called malignant B cells
T1 sequence (looked up): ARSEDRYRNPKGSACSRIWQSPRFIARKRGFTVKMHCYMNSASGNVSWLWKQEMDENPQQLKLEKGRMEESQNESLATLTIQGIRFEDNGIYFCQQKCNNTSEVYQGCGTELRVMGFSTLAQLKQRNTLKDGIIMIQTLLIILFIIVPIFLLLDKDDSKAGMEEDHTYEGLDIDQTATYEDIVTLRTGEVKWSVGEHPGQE

T2: antigen on malignant B cell lines (BJAB, Daudi, SUDHL-4, Nalm-6) bound by Mosunetuzumab, not named in the …
T2 chain: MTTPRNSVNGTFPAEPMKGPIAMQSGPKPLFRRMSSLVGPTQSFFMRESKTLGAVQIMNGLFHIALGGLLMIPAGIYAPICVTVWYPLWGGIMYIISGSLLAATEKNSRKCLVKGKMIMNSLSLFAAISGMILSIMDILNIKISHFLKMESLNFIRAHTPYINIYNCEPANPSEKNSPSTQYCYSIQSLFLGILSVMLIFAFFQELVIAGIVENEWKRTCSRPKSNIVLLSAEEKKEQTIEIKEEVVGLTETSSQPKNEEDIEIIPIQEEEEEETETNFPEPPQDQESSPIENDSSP


Assays:
[1] = molecular target: T1, CD79b on malignant B cell lines (BJAB, …); test: flow cytometry (MFI of PE) on Nalm-6 cells
Method: (§1) To evaluated the affinities of chCD79b×msnCD3 antibodies to malignant B cell lines. BJAB, Daudi, SUDHL-4 and Nalm-6 cells were purchased from ATCC. For each different cell line, 5×10⁴ cells were mixed with serially diluted antibodies Pola/msnCD3, 22D10/msnCD3, 44G2/msnCD3, 48H10/msnCD3 and 57B9/msnCD3, Mosunetuzumab, and negative control Human IgG Isotype Control (Invitrogen Catalog #02-7102) and incubated on ice for 30 minutes. After incubation, cells were washed twice and detected with an anti-human IgG PE secondary antibody (ebioscience. Cat: 12-4998-82). For analysis, the mean fluorescence intensity (MFI of PE) of each antibody was determined and plotted using GraphPad prism software (version 10.10.1; GraphPad Software Inc).

[2] = molecular target: CD3 on Jurkat-Lucia NFAT reporter T lymphocytes (UniProt P07766 23-207); test: cell-based or functional assay
Chain of CD3 on Jurkat-Lucia NFAT reporter T lymphocytes (P07766 23-207): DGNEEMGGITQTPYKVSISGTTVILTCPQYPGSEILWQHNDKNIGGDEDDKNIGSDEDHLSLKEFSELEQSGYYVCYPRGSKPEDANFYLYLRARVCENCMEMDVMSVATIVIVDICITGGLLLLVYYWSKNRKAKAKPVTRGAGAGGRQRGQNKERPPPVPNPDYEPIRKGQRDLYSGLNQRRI

[3] = molecular target: T1, CD79b on malignant B cell lines (BJAB, …); test: flow cytometry (MFI of PE) on Daudi cells
Method: as §1

[4] = molecular target: T1, CD79b on malignant B cell lines (BJAB, …); test: flow cytometry (MFI of PE) on SUDHL-4 cells
Method: as §1

[5] = molecular target: T1, CD79b on malignant B cell lines (BJAB, …); test: flow cytometry (MFI of PE) on BJAB cells
Method: as §1

[6] = molecular target: T2, antigen on malignant B cell lines …; test: flow cytometry (MFI of PE) on Daudi cells
Method: as §1

[7] = molecular target: T2, antigen on malignant B cell lines …; test: flow cytometry (MFI of PE) on SUDHL-4 cells
Method: as §1

[8] = molecular target: T2, antigen on malignant B cell lines …; test: flow cytometry (MFI of PE) on BJAB cells
Method: as §1

| Binder | EC50 [1] [nM] | T cell activation effect, NFAT-Luc reporter, EC50 nM [2] [nM] | EC50 [3] [nM] | EC50 [4] [nM] | EC50 [5] [nM] | EC50 [6] [nM] | EC50 [7] [nM] | EC50 [8] [nM] |
| --- | --- | --- | --- | --- | --- | --- | --- | --- |
| 44G2/msnCD3 (bispecific antibody, human IgG1, kappa, N297G, also called CD79b/CD3 bispecific antibody; chCD79b×msnCD3) light: DLVMTQTPSSVSAAVGGTVSINCRASEDIENYLAWYQQKPGQPPKLLIYRASTLSSGVSSRFSGSGSGTEFTLTISGVQPDDAATYYCQQGYRNSNVDNPFGGGTEMVVKRTVAAPSVFIFPPSDEQLKSGTASVVCLLNNFYPREAKVQWKVDNALQSGNSQESVTEQDSKDSTYSLSSTLTLSKADYEKHKVYACEVTHQGLSSPVTKSFNRGEC heavy: QSVRETGGGLVQPGGSLKLSCKASGFTINIDYWISWVRQAPGKGLEWIGIIDPGDGTTYFAIWVNGRFTISFDNTQNTVDLQMNSLTAADTATYFCVREFSASAYQYDLWGPGTLVTVSSASTKGPSVFPLAPSSKSTSGGTAALGCLVKDYFPEPVTVSWSSGALTSGVHTFPAVLQSSGLYSLSSVVTVPSSSLGTQTYICNVNHKPSNTKVDKKVEPKSCDKTHTCPPCPAPELLGGPSVFLFPPKPKDTLMISRTPEVTCVVVDVSHEDPEVKFNWYVDGVEVHNAKTKPREEQYGSTYRVVSVLTVLHQDWLNGKEYKCKVSNKALPAPIEKTISKAKGQPREPQVYTLPPSRDELTKNQVSLSCAVKGFYPSDIAVEWESNGQPENNYKTTPPVLDSDGSFFLVSKLTVDKSRWQQGNVFSCSVMHEALHNRFTQKSLSLSPGK not shown | 9.53 | 1.12 | 0.614 | 1.73 | 4.33 |  |  |  |
| 48H10/msnCD3 (bispecific antibody, human IgG1, kappa, N297G, also called CD79b/CD3 bispecific antibody; chCD79b×msnCD3) light: ALVMTQTPSSVSAAVGGTVSINCQASEDIESYLTWYQQKPGQPPKLLMYRASTLSSGVSSRFSASGSGTEFTLTISGVQPDDAATYYCQQGYRNKDVDNPFGGGTEVVVKRTVAAPSVFIFPPSDEQLKSGTASVVCLLNNFYPREAKVQWKVDNALQSGNSQESVTEQDSKDSTYSLSSTLTLSKADYEKHKVYACEVTHQGLSSPVTKSFNRGEC heavy: QSVKETGGGLVQPGGSLTLSCKASGFTINIDYWISWVRQAPGKGLEWIGIIDPGDGTTYFAIWVNGRFTISTDNAQNTVDLQMNSLTAADTATYFCAREFSASAYQYDLWGPGTLVTVSSASTKGPSVFPLAPSSKSTSGGTAALGCLVKDYFPEPVTVSWSSGALTSGVHTFPAVLQSSGLYSLSSVVTVPSSSLGTQTYICNVNHKPSNTKVDKKVEPKSCDKTHTCPPCPAPELLGGPSVFLFPPKPKDTLMISRTPEVTCVVVDVSHEDPEVKFNWYVDGVEVHNAKTKPREEQYGSTYRVVSVLTVLHQDWLNGKEYKCKVSNKALPAPIEKTISKAKGQPREPQVYTLPPSRDELTKNQVSLSCAVKGFYPSDIAVEWESNGQPENNYKTTPPVLDSDGSFFLVSKLTVDKSRWQQGNVFSCSVMHEALHNRFTQKSLSLSPGK not shown | 19 | 1.91 | 1.28 | 3.23 | 2.88 |  |  |  |
| Pola/msnCD3 (bispecific antibody, human IgG1, kappa, N297G, also called CD79b/CD3 bispecific antibody; chCD79b×msnCD3) light: DIQLTQSPSSLSASVGDRVTITCKASQSVDYEGDSFLNWYQQKPGKAPKLLIYAASNLESGVPSRFSGSGSGTDFTLTISSLQPEDFATYYCQQSNEDPLTFGQGTKVEIKRTVAAPSVFIFPPSDEQLKSGTASVVCLLNNFYPREAKVQWKVDNALQSGNSQESVTEQDSKDSTYSLSSTLTLSKADYEKHKVYACEVTHQGLSSPVTKSFNRGEC heavy: EVQLVESGGGLVQPGGSLRLSCAASGYTFSSYWIEWVRQAPGKGLEWIGEILPGGGDTNYNEIFKGRATFSADTSKNTAYLQMNSLRAEDTAVYYCTRRVPIRLDYWGQGTLVTVSSASTKGPSVFPLAPSSKSTSGGTAALGCLVKDYFPEPVTVSWSSGALTSGVHTFPAVLQSSGLYSLSSVVTVPSSSLGTQTYICNVNHKPSNTKVDKKVEPKSCDKTHTCPPCPAPELLGGPSVFLFPPKPKDTLMISRTPEVTCVVVDVSHEDPEVKFNWYVDGVEVHNAKTKPREEQYGSTYRVVSVLTVLHQDWLNGKEYKCKVSNKALPAPIEKTISKAKGQPREPQVYTLPPSRDELTKNQVSLSCAVKGFYPSDIAVEWESNGQPENNYKTTPPVLDSDGSFFLVSKLTVDKSRWQQGNVFSCSVMHEALHNRFTQKSLSLSPGK not shown |  | ~15.4 | 4.04 | 15.5 | 18.9 |  |  |  |
| Mosunetuzumab (bispecific antibody) chain 1: not shown chain 2: DIQMTQSPSSLSASVGDRVTITCRASSSVSYMHWYQQKPGKAPKPLIYAPSNLASGVPSRFSGSGSGTDFTLTISSLQPEDFATYYCQQWSFNPPTFGQGTKVEIKRTVAAPSVFIFPPSDEQLKSGTASVVCLLNNFYPREAKVQWKVDNALQSGNSQESVTEQDSKDSTYSLSSTLTLSKADYEKHKVYACEVTHQGLSSPVTKSFNRGEC chain 3: EVQLVQSGAEVKKPGASVKVSCKASGYTFTNYYIHWVRQAPGQGLEWIGWIYPGDGNTKYNEKFKGRATLTADTSTSTAYLELSSLRSEDTAVYYCARDSYSNYYFDYWGQGTLVTVSSASTKGPSVFPLAPSSKSTSGGTAALGCLVKDYFPEPVTVSWNSGALTSGVHTFPAVLQSSGLYSLSSVVTVPSSSLGTQTYICNVNHKPSNTKVDKKVEPKSCDKTHTCPPCPAPELLGGPSVFLFPPKPKDTLMISRTPEVTCVVVDVSHEDPEVKFNWYVDGVEVHNAKTKPREEQYGSTYRVVSVLTVLHQDWLNGKEYKCKVSNKALPAPIEKTISKAKGQPREPQVYTLPPSREEMTKNQVSLSCAVKGFYPSDIAVEWESNGQPENNYKTTPPVLDSDGSFFLVSKLTVDKSRWQQGNVFSCSVMHEALHNHYTQKSLSLSPGK chain 4: not shown |  | 2.06 |  |  |  | 13.7 | 30.6 | 50.4 |
| 22D10/msnCD3 (bispecific antibody, human IgG1, kappa, N297G, also called CD79b/CD3 bispecific antibody; chCD79b×msnCD3) light: ALVMTQTPSSVSAAVGGTVTINCRASEDIERYLAWYQQKPGQRPKLLIYGASTLASGVPSRFKGSGSGTEYTLTISGVQPDDAATYYCHQGDSSRNVVNVFGGGTEVVVKRTVAAPSVFIFPPSDEQLKSGTASVVCLLNNFYPREAKVQWKVDNALQSGNSQESVTEQDSKDSTYSLSSTLTLSKADYEKHKVYACEVTHQGLSSPVTKSFNRGEC heavy: QSVEESGGRLVTPGTPLTLTCTASGFTINDYHMNWVRQAPGKGLEWIGIISSNGDTYYASWAKGRFTISRTSTTVDLKMTSLTTEDTATYFCARDDRDRSYAFDPWGPGTLVTVSSASTKGPSVFPLAPSSKSTSGGTAALGCLVKDYFPEPVTVSWSSGALTSGVHTFPAVLQSSGLYSLSSVVTVPSSSLGTQTYICNVNHKPSNTKVDKKVEPKSCDKTHTCPPCPAPELLGGPSVFLFPPKPKDTLMISRTPEVTCVVVDVSHEDPEVKFNWYVDGVEVHNAKTKPREEQYGSTYRVVSVLTVLHQDWLNGKEYKCKVSNKALPAPIEKTISKAKGQPREPQVYTLPPSRDELTKNQVSLSCAVKGFYPSDIAVEWESNGQPENNYKTTPPVLDSDGSFFLVSKLTVDKSRWQQGNVFSCSVMHEALHNRFTQKSLSLSPGK not shown |  | 866 | 17.1 |  | 1.24 |  |  |  |
| 57B9/msnCD3 (bispecific antibody, human IgG1, kappa, N297G, also called 57B9/mscCD3; CD79b/CD3 bispecific antibody) light: ALVMTQTPSSVSADVGGTVSINCQASEDIESYLAWYQQKPGQPPKLLIYFTSNLASGVPSRFKGSGSGTEYTLTISGVQPDDAATYYCQQGYRNSDVHNPFGGGTEVVVKRTVAAPSVFIFPPSDEQLKSGTASVVCLLNNFYPREAKVQWKVDNALQSGNSQESVTEQDSKDSTYSLSSTLTLSKADYEKHKVYACEVTHQGLSSPVTKSFNRGEC heavy: QSVRETGGGLVQPGGSLTLSCEASEFTINIDYWISWVRQAPGKGLEWIGIIDPGDGTTYFAIWVNGRFTITRNTNLNTVDLKMTSLTEADTATYFCAREVSASAYQYDLWGPGTLVTVSSASTKGPSVFPLAPSSKSTSGGTAALGCLVKDYFPEPVTVSWSSGALTSGVHTFPAVLQSSGLYSLSSVVTVPSSSLGTQTYICNVNHKPSNTKVDKKVEPKSCDKTHTCPPCPAPELLGGPSVFLFPPKPKDTLMISRTPEVTCVVVDVSHEDPEVKFNWYVDGVEVHNAKTKPREEQYGSTYRVVSVLTVLHQDWLNGKEYKCKVSNKALPAPIEKTISKAKGQPREPQVYTLPPSRDELTKNQVSLSCAVKGFYPSDIAVEWESNGQPENNYKTTPPVLDSDGSFFLVSKLTVDKSRWQQGNVFSCSVMHEALHNRFTQKSLSLSPGK not shown | 9510 | ~24 | 4.59 | 11.9 | 15.1 |  |  |  |
